# Test results reported in patent publication EP2974737A1.
# Target: monoclonal antibody 21-4-3
# Test: SPR, captured 21-4-3, 500 nM; % of Fig. 9 reference
# Sequence of monoclonal antibody 21-4-3 (VH, as listed by the source, form in doubt, chain 1 of 2): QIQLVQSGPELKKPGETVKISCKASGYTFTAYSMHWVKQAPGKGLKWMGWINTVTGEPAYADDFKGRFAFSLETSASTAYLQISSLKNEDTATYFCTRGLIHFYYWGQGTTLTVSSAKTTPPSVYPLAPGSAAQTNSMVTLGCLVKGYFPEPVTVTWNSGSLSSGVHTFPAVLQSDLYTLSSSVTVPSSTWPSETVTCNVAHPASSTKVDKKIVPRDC
# Sequence of monoclonal antibody 21-4-3 (VL, as listed by the source, form in doubt, chain 2 of 2): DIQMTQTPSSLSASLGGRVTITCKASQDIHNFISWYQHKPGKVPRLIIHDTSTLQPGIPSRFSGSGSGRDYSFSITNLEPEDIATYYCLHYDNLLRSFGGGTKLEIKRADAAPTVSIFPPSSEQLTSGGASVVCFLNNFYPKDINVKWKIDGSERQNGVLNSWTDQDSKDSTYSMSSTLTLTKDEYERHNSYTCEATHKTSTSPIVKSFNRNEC
row,"binding of 21-4-3, % of Reference Sequence",Binder
1,51%,SEQ ID NO: 80 (VHH) VHH: EVQLVESGGGLVQPGGSLRLSCAASRSIGRLDRMGWYRHRPGEPRELVATITGGSSINYGDSVKGRFTISIDNSKNTVYLQMNSLRPEDTAVYYCNFNKYVTSRDTWGQGTLVQVGG
2,2%,SEQ ID NO: 89 (VHH) VHH: EVQLVESGGGSVQAGGSLRLSCAASRSIGRLDRMGWYRHRPGEPRELVATITGGSSINYGDSVKGRFTISIDNSKNTVYLQMNSLRPEDTAVYYCNFNKYVTSRDTWGQGTLVQVGG
3,75%,SEQ ID NO: 81 (VHH) VHH: EVQLVESGGGVVQPGGSLRLSCAASRSIGRLDRMGWYRHRPGEPRELVATITGGSSINYGDSVKGRFTISIDNSKNTVYLQMNSLRPEDTAVYYCNFNKYVTSRDTWGQGTLVTVSS
4,1%,SEQ ID NO: 78 (VHH) VHH: EVQLVESGGGLVRPGGSLRLSCAASRSIGRLDRMGWYRHRPGEPRELVATITGGSSINYGDSVKGRFTISIDNSKNTVYLQMNSLRPEDTAVYYCNFNKYVTSRDTWGQGTLVTVSS
5,56%,SEQ ID NO: 82 (VHH) VHH: EVQLVESGGGLVQPGGSLRLSCAASRSIGRLDRMGWYRHRPGEPRELVATITGGSSINYGDSVKGRFTISIDNSKNTVYLQMNSLRAEDTAVYYCNFNKYVTSRDTWGQGTLVTVSS
6,44%,SEQ ID NO: 71 (VHH) VHH: EVQLVESGGGLVQPGGSLRLSCAASRSIGRLDRMGWYRHRPGEPRELVATITGGSSINYGDSVKGRFTISIDNSKNTVYLQMNSLRPEDTAVYYCNFNKYVTSRDTWGQGTLVTVSG
7,91%,SEQ ID NO: 84 (VHH) VHH: EVQLVESGGGLVQPGGSLRLSCAASRSIGRLDRMGWYRHRPGEPRELVATITGGSSINYGDSVKGRFTISIDNSKNTVYLQMNSLRPEDTAVYYCNFNKYVTSRDTWGQGTLVTVGS
8,79%,SEQ ID NO: 83 (VHH) VHH: EVQLVESGGGLVQPGGSLRLSCAASRSIGRLDRMGWYRHRPGEPRELVATITGGSSINYGDSVKGRFTISIDNSKNTVYLQMNSLRPEDAAVYYCNFNKYVTSRDTWGQGTLVTVSS
9,41%,SEQ ID NO: 87 (VHH) VHH: EVQLVESGGGSVQPGGSLRLSCAASRSIGRLDRMGWYRHRPGEPRELVATITGGSSINYGDSVKGRFTISIDNSKNTVYLQMNSLRPEDTAVYYCNFNKYVTSRDTWGQGTLVTVGG
10,32%,SEQ ID NO: 85 (VHH) VHH: EVQLVESGGGSVQPGGSLRLSCAASRSIGRLDRMGWYRHRPGEPRELVATITGGSSINYGDSVKGRFTISIDNSKNTVYLQMNSLRPEDTAVYYCNFNKYVTSRDTWGQGTLVQVGG

# Continued, binder first:
row,Binder,"binding of 21-4-3, % of Reference Sequence"
1,SEQ ID NO: 45 (VHH) VHH: EVQLVESGGGLVQAGGSLRLSCAASRSIGRLDRMGWYRHRTGEPRELVATITGGSSINYGDFVKGRFTISIDNAKNTVYLQMNNLKPEDTAVYYCNFNKYVTSRDTWGQGTQVTVSS,22%
2,SEQ ID NO: 68 (VHH) VHH: EVQLVESGGGLVQAGGSLRLSCAASRSIGRLDRMGWYRHRPGEPRELVATITGGSSINYGDSVKGRFTISIDNSKNTVYLQMNSLRPEDTAVYYCNFNKYVTSRDTWGQGTQVTVSS,26%
3,SEQ ID NO: 67 (VHH) VHH: EVQLVESGGGLVQPGGSLRLSCAASRSIGRLDRMGWYRHRPGEPRELVATITGGSSINYGDSVKGRFTISIDNSKNTVYLQMNSLKPEDTAVYYCNFNKYVTSRDTWGQGTLVTVSS,101%
4,SEQ ID NO: 66 (VHH) VHH: EVQLVESGGGSVQPGGSLRLSCAASRSIGRLDRMGWYRHRPGEPRELVATITGGSSINYGDSVKGRFTISIDNSKNTVYLQMNSLRPEDTAVYYCNFNKYVTSRDTWGQGTLVTVSS,48%
5,SEQ ID NO: 65 (VHH) VHH: EVQLVESGGGLVQAGGSLRLSCAASRSIGRLDRMGWYRHRPGEPRELVATITGGSSINYGDSVKGRFTISIDNSKNTVYLQMNSLRPEDTAVYYCNFNKYVTSRDTWGQGTLVTVSS,23%
6,SEQ ID NO: 69 (VHH) VHH: EVQLVESGGGLVQPGGSLRLSCAASRSIGRLDRMGWYRHRPGEPRELVATITGGSSINYGDSVKGRFTISIDNSKNTVYLQMNSLRPEDTAVYYCNFNKYVTSRDTWGQGTQVTVSS,106%
7,SEQ ID NO: 70 (VHH) VHH: EVQLVESGGGLVQPGGSLRLSCAASRSIGRLDRMGWYRHRPGEPRELVATITGGSSINYGDSVKGRFTISIDNSKNTVYLQMNSLRPEDTAVYYCNFNKYVTSRDTWGQGTLVQVSS,106%
8,SEQ ID NO: 43 (VHH) DVQLVESGGGLVQPGGSLRLSCAASGFILDYYAIGWFRQAPGKEREGVLCIDASDDITYYADSVKGRFTISRDNSKNTVYLQMNSLRPEDTAVYYCATPIGLSSSCLLEYDYDYWGQGTLVTVSSGGGGSGGGSEVQLLESGGGLVQPGGSLRLSCAASGFTFRSFGMSWVRQAPGKGPEWVSSISGSGSDTLYADSVKGRFTISRDNSKNTLYLQMNSLRPEDTAVYYCTIGGSLSRSSQGTLVTVSSA,3%
9,SEQ ID NO: 48 (VHH) VHH: EVQLVESGGGLVQPGGSLRLSCIASGLPFSTKSMGWFRQAPGKEREFVARISPGGTSRYYGDFVKGRFAISRDNAKNTTWLQMNSLKAEDTAVYYCASGERSTYIGSNYYRTNEYDYWGTGTQVTVSS,3%
10,SEQ ID NO: 47 (VHH) VHH: EVQLVESGGGLVQPGGSLRLSCAASGSVFKINVMAWYRQAPGKGRELVAGIISGGSTSYADSVKGRFTISRDNAKNTLYLQMNSLRPEDTAVYYCAFITTESDYDLGRRYWGQGTLVTVSS,4%
11,SEQ ID NO: 49 (VHH) VHH: EVQLLESGGGLVQPGGSLRLSCAASGLPFSTKSMGWFRQAPGKGREFVSRISPGGTSRYYGDFVKGRFTISRDNSKNTLYLQMNSLRAEDTAVYYCASGERSTYIGSNYYRTNEYDYWGQGTLVTVSS,4%
